{"source": "patent US20070031855A1", "about": "(UNIVERSITY OF WYOMING, published 2007)", "binders": {"B1": {"name": "Recombinant BT-R1 protein expressed from the BT-R1 cDNA in pcDNA3 in mammalian cells (receptor)", "chain": "QERCGYMTAIPRLPRPDNLPVLNFEGQTWSQRPLLPAPERDDLCMDAYHVITANLGTQVIYMDEEIEDEITIAILNYNGPSTPFIELPFLSGSYNLLMPVIRRVDNGEWHLIITQRQHYELPGMQQYMFNVRVDGQSLVAGVSLAIVNIDDNAPIIQNFEPCRVPELGEPGLTECTYQVSDADGRISTEFMTFRIDSVRGDEETFYIERTNIPNQWMWLNMTIGVNTSLNFVTSPLHIFSVTALDSLPNTHTVTMMVQVANVNSRPPRWLEIFAVQQFEEKSYQNFTVRAIDGDTEINMPINYRLITNEEDTFFSIEALPGGKSGAVFLVSPIDRDTLQREVFPLTIVAYKYDEEAFSTSTNVVIIVTDINDQRPEPIHKEYRLAIMEETPLTLNFDKEFGFHDKDLGQNAQYTVRLESVDPPGAAEAFYIAPEVGYQRQTFIMGTLNHSMLDYEVPEFQSITIRVVATDNNDTRHVGVALVHIDLINWNDEQPIFEHAVQTVTFDETEGEGFFVAKAVAHDRDIGDVVEHTLLGNAVNFLTIDKLTGDIRVSANDSFNYHRESELFVQVRATDTLGEPFHTATSQLVIRLNDINNTPPTLRLPRGSPQVEENVPDGHVITQELRATDPDTTADLRFEINWDTSFATKQGRQANPDEFRNCVEIETIFPEINNRGLAIGRVVAREIRHNVTIDYEEFEVLSLTVRVRDLNTVYGDDYDESMLTITIIDMNDNAPVWVEGTLEQNFRVREMSAGGLVVGSVRADDIDGPLYNQVRYTIFPREDTDKDLIMIDFLTGQISVNTSGAIDADTPPRFHLYYTVVASDRCSTEDPADCPPDPTYWETEGNITIHITDTNNKVPQAETTKFDTVVYIYENATHLDEVVTLIASDLDRDEIYHTVSYVINYAVNPRLMNFFSVNRETGLVYVDYETQGSGEVLDRDGDEPTHRIFFNLIDNFMGEGEGNRNQNDTEVLVILLDVNDNAPELPPPSELSWTISENLKQGVRLEPHIFAPDRDEPDTDNSRVGYEILNLSTERDIEVPELFVMIQIANVTGELETAMDLKGYWGTYAIHIRAFDHGIPQMSMNETYELIIHPFNYYAPEFVFPTNDAVIRLARERAVINGVLATVNGEFLERISATDPDGLHAGVVTFQVVGDEESQRYFQVVNDGENLGSLRLLQAVPEEIREFRITIRATDQGTDPGPLSTDMTFRVVFVPTQGEPRFASSEHAVAFIEKSAGMEESHQLPLAQDIKNHLCEDDCHSIYYRIIDGNSEGHFGLDPVRNRLFLKKELIREQSASHTLQVAASNSPDGGIPLPASILTVTVTVREADPRPVFVRELYTAGISTADSIGRELLRLHATQSEGSAITYAIDYDTMVVDPSLEAVRQSAFVLNAQTGVLTLNIQPTATMHGLFKFEVTATDTAGAQDRTDVTVYVVSSQNRVYFVFVNTLQQVEDNRDFIADTFSAGFNMTCNIDQVVPANDPVTGVALEHSTQMRGHFIRDNVPVLADEIEQIRSDLVLLSSIQTTLAARSLVLQDLLTNSSPDSAPDSSLTVYVLASLSAVLGFMCLVLLLTFIIRTRALNRRLEALSMTKYGSLDSGLNRAGIAAPGTNKHTVEGSNPIFNEAIKTPDLDAISEGSNDSDLIGIEDLPHFGNVFMDPEVNEKANGYPEVANHNNNFAFNPTPFSPEFVNGQFRKI", "modifications": "N-glycosylated (210 kD)"}}, "target": "CryIAb toxin of Bacillus thuringiensis (Bacillus thuringiensis, UniProt P0A370 29-607, 125I-labeled (probe in blots and in the cell binding assay; the unlabeled toxin was the competitor))"}
{"binder": "B1", "values": [{"measurement": "Kd", "result": 1.01, "unit": "nM"}]}
